For orientation: stoichiometry N means the number of molecules, sites or subunits per partner or assembly.

This passage reports stoichiometry N results from doi:10.1101/682807.

The target of assay [1] is HR4^Fei-0 (overexpressed in N. benthamiana) (A. thaliana). Nature of the assay: SDS-resistant dimers on SDS-PAGE immunoblot. In general terms: In western blotting, separated proteins are transferred to a membrane and probed.
Assay [2] deals with RPP7b-3×FLAG (A. thaliana). Nature of the assay: native gel or EMSA. (In general: In EMSA bound probe runs differently from free probe, usually more slowly.)

Where “and” joins values, the source holds several entries; their conditions need not be identical. Equal entries are not always repeated.

In assay [1], “HR4^Fei-0 (overexpressed in N. benthamiana) (natural protein)” showed a stoichiometry N of 2.

In the case of RPP7b-3×FLAG (natural protein), the stoichiometry N in assay [2] was 7 and 6.
